Reference: patent US20220306744A1 (CRESCENDO BIOLOGICS, published 2022)
Positions count from the first letter of the chain named.

B1: 1.47b (VHH)
VHH: QVQLVESGGGLVKPGGSLRLSCAASGFTFSDNSMSWMRQAPGKGLEWVSYISSGGGVIFYADSVKGRFTISRDNAKNSLYLQMNSLRADDTAVYYCAREAPLRLGESPHDAFDIWGQGTMVTVSS
B2: 1.53b (VHH)
VHH: B1 VHH with S35T, G56S, I58K
B3: 1.66b (VHH)
VHH: B1 VHH with N32S, S35T, I58K, A61T, N84D, I114T, W115S
B4: 1.59b (VHH)
VHH: B1 VHH with G56S, I58K
B5: 1.63b (VHH)
VHH: B1 VHH with Q1E, N32S, S35T, I58K, A61T, W115S
B6: 1.51b (VHH)
VHH: B1 VHH with N32S, S35T, G56A, I58K, A61T
B7: 1.64b (VHH)
VHH: B1 VHH with Q1E, N32S, S35T, I58K, W115S
notes: also called Humabody 1.64b
B8: 1.55b (VHH)
VHH: B1 VHH with S35T, I58K, W115S
B9: 1.58b (VHH)
VHH: B1 VHH with S33T, S35T, S53T, I58K
B10: 1.49b (VHH)
VHH: B1 VHH with N32S, S53T, I58K
B11: 1.54b (VHH)
VHH: B1 VHH with N32D, S35T
B12: 1.69b (VHH)
VHH: B1 VHH with W115S
B13: 1.52b (VHH)
VHH: B1 VHH with S35T, I58K, F59Y
B14: 1.68b (VHH)
VHH: B1 VHH with S30G, S35T, W115S, Q117R, M120T
B15: 1.50b (VHH)
VHH: B1 VHH with S35T, G56T, V57I, I58K
B16: 1.62b (VHH)
VHH: B1 VHH with N32S, S35T, G56A, I58K, A61T, W115S
B17: 1.65b (VHH)
VHH: B1 VHH with N32S, S35T, I58K, W115S
B18: 1.67b (VHH)
VHH: B1 VHH with D31G, N32S, S35T, W115S
B19: 1.56b (VHH)
VHH: B1 VHH with S35T, G56A, I58K, W115L
B20: 1.48b (VHH)
VHH: B1 VHH with N32S, S35T, I58K
B21: 1.60b (VHH)
VHH: B1 VHH with S35T, S53T, I58K, F59Y

biological target: T1, human PD-1 expressed on cells (CHO TREX human PD1 cell line, full-length human PD-1 sequence) (human, UniProt Q15116 21-288); test: worded summary of the screens
T1 construct: Also used for human PD-1 on Jurkat reporter cells, on PathHunter cells and on PHA-stimulated human CD4+ T cells; also called CHO human PD1 cells; CHO human PD-1 cells
T1 sequence (Q15116 21-288): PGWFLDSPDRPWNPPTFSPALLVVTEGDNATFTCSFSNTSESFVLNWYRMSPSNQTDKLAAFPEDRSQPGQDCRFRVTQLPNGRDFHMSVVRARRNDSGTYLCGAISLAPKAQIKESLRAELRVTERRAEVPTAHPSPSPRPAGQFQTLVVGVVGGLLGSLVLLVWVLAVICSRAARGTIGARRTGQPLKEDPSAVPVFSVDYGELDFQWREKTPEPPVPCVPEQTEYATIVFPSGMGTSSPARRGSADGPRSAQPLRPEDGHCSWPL

Binding result, binds:
B1
B2
B3
B4
B5
B6
B7
B8
B9
B10
B11
B12
B13
B14
B15
B16
B17
B18
B19
B20
B21
